No end group written: not given here. Alexa488 = Alexa488 dye (single fluorescent dye molecule)
Target: T1, CGRP receptor on rat CNS1 glioma cells (rat, UniProt Q63118 24-464; Q9JJ74 27-148)
T1 construct: whole, on cells; Endogenous receptor; also called CGRP receptors of CNS1 glioma cells
Assay: fluorescence microscopy, 30 nM FL-CGRP on CNS1 cells
Description: FIG. 13 is a panel of microscopy images illustrating that FL-CGRP binds to CNS1 glioma cells. CNS1 cells were incubated with 30 nM FL-CGRP for 30 minutes, and imaged using phase-contrast microscopy (right, upper and lower panels) and fluorescent microscopy for FL-CGRP (left, upper and lower panels).

T1 sequence (Q63118 24-464, chain 1 of 2): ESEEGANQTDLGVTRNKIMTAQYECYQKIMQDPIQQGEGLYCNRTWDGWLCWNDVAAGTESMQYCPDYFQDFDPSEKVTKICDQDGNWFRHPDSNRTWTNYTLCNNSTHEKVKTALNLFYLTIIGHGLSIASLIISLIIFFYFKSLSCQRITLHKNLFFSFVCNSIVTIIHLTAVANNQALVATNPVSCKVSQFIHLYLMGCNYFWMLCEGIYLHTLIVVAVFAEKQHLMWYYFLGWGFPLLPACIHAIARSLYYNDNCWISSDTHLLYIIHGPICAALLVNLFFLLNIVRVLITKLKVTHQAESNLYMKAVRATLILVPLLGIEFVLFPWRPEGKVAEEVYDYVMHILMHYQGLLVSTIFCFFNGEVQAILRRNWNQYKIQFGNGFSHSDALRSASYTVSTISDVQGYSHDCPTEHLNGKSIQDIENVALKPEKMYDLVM
T1 sequence (Q9JJ74 27-148, chain 2 of 2): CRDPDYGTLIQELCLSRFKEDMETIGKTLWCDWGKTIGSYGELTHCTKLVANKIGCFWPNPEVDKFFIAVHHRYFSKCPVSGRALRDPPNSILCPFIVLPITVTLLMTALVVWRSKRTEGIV

binding result: binds
B1: fluorescently-labeled CGRP (FL-CGRP): rat CGRP with a single Alexa488 dye on lysine 24 (peptide, UniProt P01256 83-119, looked up)
peptide: SCNTATCVTHRLAGLLSRSGGVVK(Alexa488)DNFVPTNVGSEAF
modifications: ends and bridges not checked
notes: mature; the peptide itself is the mature 37-mer; also called single-labeled FL-CGRP

Source: patent publication US20110189205A1 (UNIVERSITY OF ROCHESTER, published 2011)
